In patent publication US11685786 (MERUS N V, dated 2023):

B1: MF6825 x MF6825 bivalent monospecific CD137 IgG (antibody, V domains shown)
VH: QITLKESGPTLVKPTQTLTLSCTFSGFSLSTSGMSVGWIRQPPGKALEWLALIYWNDDKYFSPSLKSRLTITKDTSKNQVVLTLTNMDPVDTATYYCAHTLWGSDDVFDVWGQGTMVTVSS
VL: not shown
notes: bivalent IgG; also called PB14162; copies: 2 + 2
B2: MF6798 x MF6798 bivalent monospecific CD137 IgG (antibody, V domains shown)
VH: QVQLVQSGSELKKPGASVKVSCRASGYTFTNFAMTWVRQAPGQGPEYMGWINTNTGNPTYAQGFTGRFVFSLDTSVNTAYLQISSLKAEDTAVYYCARDWASVMVRGDLDYWGQGTLVTVSS
VL: not shown
notes: bivalent IgG; copies: 2 + 2
B3: MF6744 x MF6744 bivalent monospecific CD137 IgG (antibody, V domains shown)
VH: EVQLVQSGAEVKKPGESLKISCKGSGYSFTSYWIGWVRQMPGKGLEWMGIIFPDDSDTRYSPSFQGQVTISADKSISTAYLQWSSLKPSDTAMYYCVRLGGYSGYAEDFVDFWGQGTLVTVSS
VL: not shown
notes: bivalent IgG; also called PG6744; PB14135; copies: 2 + 2
B4: MF6788 x MF6788 bivalent monospecific CD137 IgG (antibody, V domains shown)
VH: EVQLVQSGSELKKPGASVKVSCKASGYTFTNFAMNWVRQAPGQGLEWMGWINTNTGNPTYAQDFTGRFVFSLDTSGNTAYLQISSLKAEDTAVYYCARDWGLVAIGYFDYWGQGTLVTVSS
VL: not shown
notes: bivalent IgG; also called PB14193; copies: 2 + 2
B5: MF6795 x MF6795 bivalent monospecific CD137 IgG (antibody, V domains shown)
VH: EVQLVQSGAEVKKPGESLKISCKGSGYSFTSYWIGWVRQMPGKGLEWMGIIYPDDSDTRYSPSFQGQVTISADKSSSTAYLQWSSLKASDTAMYYCASFYTGIVGATGAFDVWGQGTTVTVSS
VL: not shown
notes: bivalent IgG; copies: 2 + 2
B6: MF6783 x MF6783 bivalent monospecific CD137 IgG (antibody, V domains shown)
VH: QVQLVQSGSELKKPGASVKVSCKASGYTFTNFAMNWVRRAPGQGLEWMGWINTNTGNPTYAQGFTGRFVFSLDTSVNTAYLQISSLKAEDTAVYYCARDWGVIGGHYMDVWGKGTTVTVSS
VL: not shown
notes: bivalent IgG; also called PG6783; PB14143; copies: 2 + 2
B7: MF6861 x MF6861 bivalent monospecific CD137 IgG (antibody, V domains shown)
VH: QVQLVQSGAEVKKPGASVKVSCKASGYTFTSYGISWVRQAPGQGLEWMGWISAYNGNTNYAQKLQGRVTMTTDTSTSTAYMELRSLRSDDTAVYYCARDSDGYGPKAFDYWGQGTLVTVSS
VL: not shown
notes: bivalent IgG; copies: 2 + 2

Tests used:
[1] = molecular target: T1, recombinant huCD137-Fc (R&D; cat. no. 838-4B) (human, UniProt Q07011 24-186); test: CD137L blocking assay; competitor CD137L; format not told in the excerpt
T1 construct: Bought; not shown: Fc of bought fusion protein, not described

[2] = molecular target: T1, recombinant huCD137-Fc (R&D; cat. no. …); test: competition ELISA: CD137L-muCD8 biotin on coated CD137-Fc, IgG 20 ug/ml

Row | Binder | % CD137L block [1] | % CD137L block [2]
1 | B1 | 89% | 89%
2 | B2 | 44% | 44%
3 | B3 | 67% | 67%
4 | B4 | 55% | 55%
5 | B5 | 32% | 32%
6 | B6 | 44% | 44%
7 | B7 | 50% | 50%
